According to the supplement of paper PMC11246515:
± gives the standard deviation of the averaged measurements.

Experiment: total protein half-life in vivo (active degradation + dilution); higher = more stable protein
[1] = E. coli NCM3722 delta-clpP delta-lon delta-hslV, growth: N-lim chemostat, doubling time 6 h
[2] = E. coli NCM3722 delta-clpP, growth: N-lim chemostat, doubling time 6 h
[3] = E. coli NCM3722 delta-hslV, growth: N-lim chemostat, doubling time 6 h
[4] = E. coli NCM3722 delta-lon, growth: N-lim chemostat, doubling time 6 h
[5] = E. coli NCM3722 delta-smpB, growth: N-lim chemostat, doubling time 6 h
[6] = wild type E. coli NCM3722, growth: C-lim chemostat, doubling time 3 h
[7] = wild type E. coli NCM3722, growth: C-lim chemostat, doubling time 6 h
[8] = wild type E. coli NCM3722, growth: C-lim chemostat, doubling time 12 h
[9] = wild type E. coli NCM3722, growth: N-lim chemostat, doubling time 6 h
[10] = wild type E. coli NCM3722, growth: N-lim chemostat, doubling time 12 h
[11] = wild type E. coli NCM3722, growth: P-lim chemostat, doubling time 6 h
[12] = wild type E. coli NCM3722, growth: P-lim chemostat, doubling time 12 h

MSAIENFDAHTPMMQQYLRLKAQHPEILLFYRMGDFYELFYDDAKRASQLLDISLTKRGASAGEPIPMAGIPYHAVENYLAKLVNQGESVAICEQIGDPATSKGPVERKVVRIVTPGTISDEALLQERQDNLLAAIWQDSKGFGYATLDISSGRFRLSEPADRETMAAELQRTNPAELLYAEDFAEMSLIEGRRGLRRRPLWEFEIDTARQQLNLQFGTRDLVGFGVENAPRGLCAAGCLLQYAKDTQRTTLPHIRSITMEREQDSIIMDAATRRNLEITQNLAGGAENTLASVLDCTVTPMGSRMLKRWLHMPVRDTRVLLERQQTIGALQDFTAGLQPVLRQVGDLERILARLALRTARPRDLARMRHAFQQLPELRAQLETVDSAPVQALREKMGEFAELRDLLERAIIDTPPVLVRDGGVIASGYNEELDEWRALADGATDYLERLEVRERERTGLDTLKVGFNAVHGYYIQISRGQSHLAPINYMRRQTLKNAERYIIPELKEYEDKVLTSKGKALALEKQLYEELFDLLLPHLEALQQSASALAELDVLVNLAERAYTLNYTCPTFIDKPGIRITEGRHPVVEQVLNEPFIANPLNLSPQRRMLIITGPNMGGKSTYMRQTALIALMAYIGSYVPAQKVEIGPIDRIFTRVGAADDLASGRSTFMVEMTETANILHNATEYSLVLMDEIGRGTSTYDGLSLAWACAENLANKIKALTLFATHYFELTQLPEKMEGVANVHLDALEHGDTIAFMHSVQDGAASKSYGLAVAALAGVPKEVIKRARQKLRELESISPNAAATQVDGTQMSLLSVPEETSPAVEALENLDPDSLTPRQALEWIYRLKSLV
total protein half-life in vivo [1]: 5.91 ± 0.07 h | total protein half-life in vivo [2]: 5.059 ± 0.028 h | total protein half-life in vivo [3]: 3.51 ± 0.062 h | total protein half-life in vivo [4]: 3.99 ± 0.046 h | total protein half-life in vivo [5]: 3.329 ± 0.022 h | total protein half-life in vivo [6]: 2.84 ± 0.36 h | total protein half-life in vivo [7]: 4.96 ± 0.41 h | total protein half-life in vivo [8]: 9.15 ± 1.4 h | total protein half-life in vivo [9]: 3.7765 ± 0.0035 h | total protein half-life in vivo [10]: 5.56 ± 0.91 h | total protein half-life in vivo [11]: 4.78 ± 0.42 h | total protein half-life in vivo [12]: 7.5 ± 0.22 h

MSPIEKSSKLENVCYDIRGPVLKEAKRLEEEGNKVLKLNIGNPAPFGFDAPDEILVDVIRNLPTAQGYCDSKGLYSARKAIMQHYQARGMRDVTVEDIYIGNGVSELIVQAMQALLNSGDEMLVPAPDYPLWTAAVSLSSGKAVHYLCDESSDWFPDLDDIRAKITPRTRGIVIINPNNPTGAVYSKELLMEIVEIARQHNLIIFADEIYDKILYDDAEHHSIAPLAPDLLTITFNGLSKTYRVAGFRQGWMVLNGPKKHAKGYIEGLEMLASMRLCANVPAQHAIQTALGGYQSISEFITPGGRLYEQRNRAWELINDIPGVSCVKPRGALYMFPKIDAKRFNIHDDQKMVLDFLLQEKVLLVQGTAFNWPWPDHFRIVTLPRVDDIELSLSKFARFLSGYHQL [P0A959]
total protein half-life in vivo [1]: 4.25 ± 0.35 h | total protein half-life in vivo [2]: 3.41 ± 0.16 h | total protein half-life in vivo [3]: 3.89 ± 0.23 h | total protein half-life in vivo [4]: 4.86 ± 1.1 h | total protein half-life in vivo [5]: 3.88 ± 0.19 h | total protein half-life in vivo [6]: 3.14 ± 0.28 h | total protein half-life in vivo [7]: 5.63 ± 0.23 h | total protein half-life in vivo [8]: 9.16 ± 0.84 h | total protein half-life in vivo [9]: 3.76 ± 0.29 h | total protein half-life in vivo [10]: 7.13 ± 0.82 h | total protein half-life in vivo [11]: 6.06 ± 0.87 h | total protein half-life in vivo [12]: 11.78 ± 0.1 h

MTKVLLSHPPRPASHNSSRAMVWVRKNLFSSWSNSLLTIGCIWLMWELIPPLLNWAFLQANWVGSTRADCTKAGACWVFIHERFGQFMYGLYPHDQRWRINLALLIGLVSIAPMFWKILPHRGRYIAAWAVIYPLIVWWLMYGGFFALERVETRQWGGLTLTLIIASVGIAGALPWGILLALGRRSHMPIVRILSVIFIEFWRGVPLITVLFMSSVMLPLFMAEGTSIDKLIRALVGVILFQSAYVAEVVRGGLQALPKGQYEAAESLALGYWKTQGLVILPQALKLVIPGLVNTIIALFKDTSLVIIIGLFDLFSSVQQATVDPAWLGMSTEGYVFAALIYWIFCFSMSRYSQYLEKRFNTGRTPH
total protein half-life in vivo [9]: 4.17 h

MVIKAQSPAGFAEEYIIESIWNNRFPPGTILPAERELSELIGVTRTTLREVLQRLARDGWLTIQHGKPTKVNNFWETSGLNILETLARLDHESVPQLIDNLLSVRTNISTIFIRTAFRQHPDKAQEVLATANEVADHADAFAELDYNIFRGLAFASGNPIYGLILNGMKGLYTRIGRHYFANPEARSLALGFYHKLSALCSEGAHDQVYETVRRYGHESGEIWHRMQKNLPGDLAIQGR [P0A8V6]
total protein half-life in vivo [1]: 5.22 ± 0.34 h | total protein half-life in vivo [2]: 5.72 ± 0.28 h | total protein half-life in vivo [3]: 5.12 ± 0.56 h | total protein half-life in vivo [4]: 6.05 ± 0.6 h | total protein half-life in vivo [5]: 5.01 ± 0.18 h | total protein half-life in vivo [6]: 2.88 ± 0.091 h | total protein half-life in vivo [7]: 6.27 ± 0.67 h | total protein half-life in vivo [8]: 9.92 ± 0.94 h | total protein half-life in vivo [9]: 5.93 ± 0.23 h | total protein half-life in vivo [10]: 10.3 ± 0.15 h | total protein half-life in vivo [11]: 4.58 ± 0.83 h | total protein half-life in vivo [12]: 8.62 ± 1.3 h

MLYLTKISNAGSEFTENEQKIADFLQANVSELQSVSSRQMAKQLGISQSSIVKFAQKLGAQGFTELRMALIGEYSASREKTNATALHLHSSITSDDSLEVIARKLNREKELALEQTCALLDYARLQKIIEVISKAPFIQITGLGGSALVGRDLSFKLMKIGYRVACEADTHVQATVSQALKKGDVQIAISYSGSKKEIVLCAEAARKQGATVIAITSLTDSPLRRLAHFTLDTVSGETEWRSSSMSTRTAQNSVTDLLFVGLVQLNDVESLKMIQRSSELTQRLK
total protein half-life in vivo [1]: 6.32 ± 0.32 h | total protein half-life in vivo [2]: 5.62 ± 0.76 h | total protein half-life in vivo [3]: 5.52 ± 0.44 h | total protein half-life in vivo [4]: 5.93 ± 2.8 h | total protein half-life in vivo [5]: 5.37 ± 0.52 h | total protein half-life in vivo [6]: 3.04 ± 0.11 h | total protein half-life in vivo [7]: 5.97 ± 0.46 h | total protein half-life in vivo [8]: 12.7 ± 3 h | total protein half-life in vivo [9]: 5.36 ± 0.48 h | total protein half-life in vivo [11]: 5.74 h | total protein half-life in vivo [12]: 12 ± 2 h
